Assay [1] concerns the target Negative control (amino acid sequence shown in SEQ ID NO: 2 in CN106046152A). As to the kind of experiment: ELISA, negative control well, TG1 supernatant. On the technique in general: An ELISA detects its analyte on a solid surface through an enzyme-linked reagent.
Assay [2] concerns the target MSLN·His protein (human) (UniProt Q13421). Briefly: SPR (Biacore), antibody captured on protein A, MSLN·His as analyte. In general terms: In SPR one partner is held on a chip, and binding of the other changes the refractive index at the surface.
For assay [3], the target named is MSLN on SKOV3 and Aspc-1 tumor cells (UniProt Q13421). Briefly: flow cytometry on SKOV3 tumor cells, anti-human IgG PE secondary, fitted curve. For orientation: Flow cytometry measures light scatter and fluorescence of single cells or particles in a stream.
Assay [4] has the same target. Briefly: flow cytometry on Aspc-1 tumor cells, anti-human IgG PE secondary, fitted curve.
The target of assay [5] is segment III of MSLN expressed on HEK293T cells (UniProt Q13421). Briefly: flow cytometry on HEK293T cells expressing MSLN segment III, anti-human IgG PE secondary, fitted curve.
Sequence of segment III of MSLN expressed on HEK293T cells (Q13421 495-606 limits assumed): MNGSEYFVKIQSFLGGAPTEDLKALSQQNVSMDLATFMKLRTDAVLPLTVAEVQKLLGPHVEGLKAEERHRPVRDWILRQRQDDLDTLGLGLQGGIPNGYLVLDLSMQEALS

Sequence of MSLN·His protein (human) (Q13421 other isoform, or with tags, fused parts or gaps limits assumed): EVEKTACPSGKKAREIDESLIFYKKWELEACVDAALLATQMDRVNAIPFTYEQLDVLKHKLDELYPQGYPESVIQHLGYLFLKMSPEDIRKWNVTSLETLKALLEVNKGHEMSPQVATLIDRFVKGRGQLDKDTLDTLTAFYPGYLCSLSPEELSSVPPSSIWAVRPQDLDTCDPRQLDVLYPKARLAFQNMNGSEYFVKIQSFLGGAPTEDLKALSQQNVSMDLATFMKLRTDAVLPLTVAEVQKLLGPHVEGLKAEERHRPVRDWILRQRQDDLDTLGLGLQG
Sequence of MSLN on SKOV3 and Aspc-1 tumor cells (Q13421 other isoform, or with tags, fused parts or gaps limits assumed): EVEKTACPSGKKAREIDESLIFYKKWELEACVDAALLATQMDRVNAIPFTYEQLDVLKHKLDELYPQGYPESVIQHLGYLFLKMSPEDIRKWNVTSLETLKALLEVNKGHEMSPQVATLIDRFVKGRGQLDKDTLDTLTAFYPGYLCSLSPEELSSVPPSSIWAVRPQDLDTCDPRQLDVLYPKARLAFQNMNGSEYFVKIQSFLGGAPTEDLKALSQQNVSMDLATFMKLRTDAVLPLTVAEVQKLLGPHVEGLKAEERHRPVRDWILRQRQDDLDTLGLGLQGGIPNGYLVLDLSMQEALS

B1: M012 (VHH)
VHH: QVQLVESGGDLVQTGGSLRLSCVVSGSTFAINAMGWYRQAPGKERELVAAISSGGDSTHYADDVKGRFTISRDNAENTMYLQMKSLKPEDTAVYVCNARGCRDFHNPQALCVLRDYWGQGTQVTVSS
For B1, the ELISA (OD450) in assay [1] is 0.0075 OD450.

B2: M118 (VHH)
VHH: EVQLVESGGGLVQAGGSLTLSCAASEHTFTIDAMGYYRQIPGRRNERQLVAAAGRTGTTYYNDAVKDRFTIYRDTSKETIILQMNNLRPEDTTMYYCAVERYSDQSRFFGPGTQVTVSS
In turn, B2 registered an ELISA (OD450) in assay [1] of 0.0074 OD450.

B3: M132 (VHH)
VHH: QVQLVESGGGLVQAGGSLSLSCVASGDAFSFDAMGWYRQFSGKVNERQLVVATSRDGRTAYGERVKGRFTASRDNSKNTLSLVMNNLQVEDTAIYYCAAGDDPKDYYWGQGTQVTVSS
Turning to B3, the ELISA (OD450) in assay [1] stood at 0.007 OD450.

B4: M197 (VHH)
VHH: EVQLVESGGGLVQAGGSLRLSCAASGSHFGLNVVGWYRQAPGKQRELVASIGNSGRTTDYADSVKGRFTISKDNAQNTIYLQMNNLKPEDTAMYRCHLRVSVERGYWGQGTQVTVSS
For the molecule B4, in assay [1], the ELISA (OD450) came to 0.0074 OD450.

B5: M004 (VHH)
VHH: EVQLVESGGGLVQAGGSLRLSCAASESISSIAYMGWYRRISEKERNLVATISSTGSTYYADSVKGRFTISRDNAKNTMYLQMNRLKPEDTAIYYCAASNKAYNDYDPDWGQGTQVTVSS
In the case of B5, in assay [1], the ELISA (OD450) is 0.0085 OD450.

B6: M191 (VHH)
VHH: QVQLVESGGGLVQAGGSLRLSCAASASMGSISNMGWYRQAPGKERGNERNLVATIGSDGRTYYADSVKGRFTISRDNVKNTMILQMNFLKPEDTAMYYCAVEDRQRPGTENYYWGQGTQVTVSS
As to B6, in assay [1], the ELISA (OD450) is 0.0074 OD450.

B7: M2339-z1-1 (antibody, part only; not given: constant region, IgG4, part only)
heavy, part: QLQLGASGGGLVQPGGSLRLSCALSGFTLRELDEFAIGWFRQAPGKEREGVSCISGTGGITHYADSVKGRFTISRDIAKNTVYLQMNSLNSEDTAVYYCAADERCTDRLIRPPTYWGQGTQVTVSS
In assay [2], B7 registered a dissociation constant (Kd) of 2270 nM, a koff of 0.000739 s⁻¹ and a kon of 326 M⁻¹ s⁻¹.

B8: M2339 (VHH)
VHH: QLQLGASGGGLVQPGGSLRLSCALSGFTLRELDEFAIGWFRQAPGKEREGVSCISGTGGITHYADSVKGRFTISRDIAKTTVYLQMNSLNSEDTAVYYCAADERCTDRLIRPPTYWGQGTQVTVSS
B8 registered an ELISA (OD450) in assay [1] of 0.0479 OD450.

B9: M119 (VHH)
VHH: EVQLVESGGGLVQPGGSLRLSCVASGSDLSFDAMGWYRQFSATVRERQLVVATSRDGRIYYGDSVKGRFTASRDNLKNSVDLEMNNLKPEDTAIYYCAAGDDPKNYDWGPGTQVTVSS
Consider B9, for which the ELISA (OD450) in assay [1] was 0.0071 OD450.

B10: M137 (VHH)
VHH: QVQLVESGGGLVQAGGSLSLSCAASGSLSSINAMGWYRQLPEMRQLVATMGSDGKTYYADSVKGRFTISRDYAKYTVSLQMNNLRPEDTAIYYCAADRFGAPIHDVDYWGKGTLVTVSV
B10: in assay [1], the ELISA (OD450) worked out at 0.0087 OD450.

B11: M047 (VHH)
VHH: QVQLVETGGGSVQAGGSLRLSCAASGSIASIDAMGWYRQVPGKEWERELVATISSSNSDNKYYKDSVKGRFTISTNIAKNTWYLQMNNLKPEDTAMYYCAAEDYDTKDRFWGQGTQVTVSS
In assay [1], B11 returned an ELISA (OD450) of 0.018 OD450.

B12: M050 (VHH)
VHH: EVQLQESGGGLVQAGGSLRLSCAASGAVSSINAMGWYRQTPEKVRKLVATMGSGGNTYYADSVKGRFTISRDYAKNTVALQMNNLIPEDTAVYYCAADKFGADIHEVDYWGKGTLVTVSS
As for B12, the ELISA (OD450) in assay [1] turned out to be 0.0099 OD450.

B13: M156 (VHH)
VHH: QVQLVESGGGLVQAGGSLRLSCAVSGISFEYYAIGWFRQAPGKEREAVSCTTSGTTSGGGVTDYADSLKGRFTISRDVAKNTVYLQMNNLTPEDTAVYYCAADIHCRGYVLFVPSDFGNWGQGTQVTVSS
Turning to B13, the ELISA (OD450) in assay [1] was 0.0074 OD450.

B14: M044 (VHH)
VHH: QVQVVESGGGFVQAGGSLRLSCAASTPIISIAYMGWYRQISEKERQLVATINSGGKTYYADSVKGRFTISRDNAKNTLYLQMNMLKPEDTGMYYCAASNKDYNDYDPDWGQGTQVTVSS
B14: the ELISA (OD450) in assay [1] worked out at 0.0083 OD450.

B15: M169 (VHH)
VHH: EVQLVESGGGTVQPGESLRLSCEASGAVSTINAMGWYRQTPEMRKLVATMGSGGNTYYADSVKGRFTISRDFAGNTVDLQMNDLKPEDTGVYFCAADKFGADIKEVAYWGKGTLVTVSS
Consider B15, for which the ELISA (OD450) in assay [1] was 0.007 OD450.

B16: M001 (VHH)
VHH: EVQLVESGGGLVQAGGSLRLSCAASGSIFNINAMGWYRQAPGKEWERELVATISSSNSDNTYYKDSVKGRFTISTNTAKNTWYLQMNSLKPEDTAMYYCAAENYDRKDRYWGQGTQVTVSS
B16 gave an ELISA (OD450) in assay [1] of 0.0184 OD450.

B17: M003 (VHH)
VHH: QVQLVESGGGLVQAGGSLRLSCTASGNIFSINAMGWYRQPPGKEWERELVATISSTNSDNTYYKESVKGRFTISTNTAKNTWYLQMNSLKPEDTAMYYCAAENFDRKDRYWAQGTQVTVSS
In the case of B17, in assay [1], the ELISA (OD450) stood at 0.0104 OD450.

B18: M210 (VHH)
VHH: QVQLVESGGGLVQPGGSLRLSCAASGITLDNYAIAWFRQAPGKKREGVSCISSNGNTYYQPSVKGRFTIARDNAKNTVYLHMNNLNPEDTAVYYCQVGQFSSSTTPVQAMSVMSLYADWGQGTQVTVSS
In turn, B18 gave an ELISA (OD450) in assay [1] of 0.0071 OD450.

B19: M344 (VHH)
VHH: QVQLVESGGGLVQSGGSLRLSCVASGSAFSFDAMGWYRQFSATRRERQLVVATSRDGRTYYADSVKGRFTATRDNSKNSLYLEMNSLKPEDTAIYYCAAGDDPKNYSWGQGTQVTVSS
Molecule B19 had an ELISA (OD450) in assay [1] of 0.0082 OD450.

B20: M224 (VHH)
VHH: QVQLVESGGGLVQPGGSLRLSCAASGFTFHYYAIGWFRQAPGKEREGVSCISSSGDSTWFSDSVKGRFTVSRDNAKNIVHLQMNNLKPEDTAVYYCAGTTRSGYVCYDAEPYDSWGQGTQVTVSS
As for B20, the ELISA (OD450) in assay [1] was 0.0074 OD450.

B21: M182 (VHH)
VHH: QVQLVESGGGSVQAGGSLTLSCAASGAVSSINAMGWYRQTPEKVRQLVATMGSGGNTYYAASVKGRFTISRDYAKNTVALQMNHLLPEDTAVYYCAADRFGADIREVDYWGKGTQVTVSS
For B21, the ELISA (OD450) in assay [1] was 0.0075 OD450.

B22: M005 (VHH)
VHH: EVQLVESGGGWVQSGGSLRLACAASGSSFGLNVVGWYRQAPDKQRELVASIGNGGRTTDYADSVKGRFTISSDNAKNTVFLQMNDLKPEDTAVYYCHLRASVTKGYWGQGTQVTVSS
In the case of B22, in assay [1], the ELISA (OD450) is 0.0072 OD450.

B23: M126 (VHH)
VHH: EVQLVESGGGWVQSGGSLRLACAASGDSFGLNVVGWYRLAPDKQRELVASIGNGGRTTDYADSVKGRFTISSDNAKNTVFLQMNDLKPEDTAMYYCHLRVSVTEGYWGQGTQVTVSS
Turning to B23, the ELISA (OD450) in assay [1] amounted to 0.0068 OD450.

B24: YP218-IgG4 (antibody, from another filing, V domains shown)
VH: QQQLEESGGGLVKPEGSLTLTCKASGFDLGFYFYACWVRQAPGKGLEWIACIYTAGSGSTYYASWAKGRFTISKASSTTVTLQMTSLAAADTATYFCARSTANTRSTYYLNLWGPGTLVTVSS
VL: DVVMTQTPASVSEPVGGTVTIKCQASQRISSYLSWYQQKPGQRPKLLIFGASTLASGVPSRFKGSGSGTEYTLTISDLECADAATYYCQSYAYFDSNNWHAFGGGTEVVVRT
B24: in assay [2], the Kd was 3.1 nM, the off-rate (koff) turned out to be 0.000123 s⁻¹ and the association rate constant (kon) was found to be 40200 M⁻¹ s⁻¹. The concentration for a half-maximal effect (EC50) in assay [3] is 6.96 nM. For the same molecule, the EC50 in assay [4] was found to be 4.24 nM. Moreover, the EC50 in assay [5] stood at 2.44 nM.

B25: M129 (VHH)
VHH: QVQLVESGGGSAQAGGSLILSCVASANLFTIDALGWYRQAPGPKRELVAAISSGGNKYYADAVKGRFTISRDTLTKTMWLQMNNLKPEDTAMYYCAAEDYGLGQRSWGMGTQVTVSS
Regarding B25, the ELISA (OD450) in assay [1] came out at 0.007 OD450.

B26: M010 (VHH)
VHH: QVQLVESGGGLVQAGGSLRLSCAASGSVSSINAMGWYRQGTGEVRKLVATMGSGGNTYYADSVKGRFFITRDYSKNTVSLQMNNLTPEDSATYYCAADRFGASIHEVDYWGKGTLVTVSS
B26 had an ELISA (OD450) in assay [1] of 0.007 OD450.

B27: M143 (VHH)
VHH: EVQLVESGGGLVQAGGSLRLSCSASEKTFSIKYMGYYRQGPGIERKLVATIDTDGKTWYADSVKGRFTISRENGENEIGLEMNRLKPEDTAMYYCAGETGTYPKPEYWGQGTQVTVSS
For the molecule B27, in assay [1], the ELISA (OD450) came out at 0.0085 OD450.

B28: M032 (VHH)
VHH: EVQLVESGGGSVQAGGSLKISCAASGSVIDIGAMGWYRHITEKERKLVATINAGGNTYYADSVKGRFTISRDNAKYTVYLQMNSLKPEDTAMYYCAAEDINYTGTEAYYWGQGTQVTVSS
In assay [1], B28 showed an ELISA (OD450) of 0.0076 OD450.

A word on the Kd: it is the free concentration of one partner at which half of the binding sites on the other are occupied at equilibrium, for simple one-to-one binding. A low value points to higher affinity. What is called koff is a measure of how fast the partners let go of each other. In general, kon refers to the rate constant with which the complex forms. A high value points to faster complex formation. The EC50 is the midpoint of the concentration-response curve. A low value points to an effect from little substance.

Values taken from patent US20240190986A1.
